Reference: paper PMC8366996, “A novel cascade allows Metarhizium robertsii to distinguish cuticle and hemocoel microenvironments during infection of insects”
Changes are numbered by the printed parent chain.

Key:
COH2-DBD [1] = biological target: T1, COH2-DBD (Metarhizium robertsii, UniProt E9F6D9 1-100); experiment: EMSA; LightShift Chemiluminescent EMSA Kit; competitor up to 300-fold excess; buffer, salt, pH and temperature not stated; details: protein: recombinant; tags: His (pET28a); chain copies: 2; label: biotin on one strand (Bio-probe); unlabeled as Cold-probe
COH2-DBD [2] = biological target: T1, COH2-DBD; experiment: competition; unlabeled mutant, 300-fold excess; almost completely abolished shift; LightShift Chemiluminescent EMSA Kit; competitor up to 300-fold excess; buffer, salt, pH and temperature not stated; details: protein: recombinant; tags: His (pET28a); chain copies: 2

B1: COH2-BM wild-type probe (dsDNA)
DNA 1: TTCATCTGCCGAAATGTGGACGCTGACTCGGTATGCATTGCACCATCTC
DNA 2: GAGATGGTGCAATGCATACCGAGTCAGCGTCCACATTTCGGCAGATGAA
Does B1 bind (COH2-DBD [1])?
Result: binds

B2: 7A (dsDNA)
DNA 1: B1 DNA 1 with G30A
DNA 2: B1 DNA 2 with C20T
Does B2 bind (COH2-DBD [2])?
Result: binds
